Measurements reported in article PMC9679424, “The CARD8 T60 variant associates with NLRP1 and negatively regulates its activation” (Frontiers in Immunology, 2022).

Molecular target: T1, NLRP1-FLAG (human, UniProt Q9C000-1 1-1473)
T1 construct: NLRP1, human, UniProt Q9C000-1, full length; The host of the purified protein is told only as a mammalian expression system; also called full-length NLRP1; Flag-tagged NLRP1; source: HEK 293T, transiently transfected, in lysate; also purified using mammalian protein expression system
T1 sequence (looked up): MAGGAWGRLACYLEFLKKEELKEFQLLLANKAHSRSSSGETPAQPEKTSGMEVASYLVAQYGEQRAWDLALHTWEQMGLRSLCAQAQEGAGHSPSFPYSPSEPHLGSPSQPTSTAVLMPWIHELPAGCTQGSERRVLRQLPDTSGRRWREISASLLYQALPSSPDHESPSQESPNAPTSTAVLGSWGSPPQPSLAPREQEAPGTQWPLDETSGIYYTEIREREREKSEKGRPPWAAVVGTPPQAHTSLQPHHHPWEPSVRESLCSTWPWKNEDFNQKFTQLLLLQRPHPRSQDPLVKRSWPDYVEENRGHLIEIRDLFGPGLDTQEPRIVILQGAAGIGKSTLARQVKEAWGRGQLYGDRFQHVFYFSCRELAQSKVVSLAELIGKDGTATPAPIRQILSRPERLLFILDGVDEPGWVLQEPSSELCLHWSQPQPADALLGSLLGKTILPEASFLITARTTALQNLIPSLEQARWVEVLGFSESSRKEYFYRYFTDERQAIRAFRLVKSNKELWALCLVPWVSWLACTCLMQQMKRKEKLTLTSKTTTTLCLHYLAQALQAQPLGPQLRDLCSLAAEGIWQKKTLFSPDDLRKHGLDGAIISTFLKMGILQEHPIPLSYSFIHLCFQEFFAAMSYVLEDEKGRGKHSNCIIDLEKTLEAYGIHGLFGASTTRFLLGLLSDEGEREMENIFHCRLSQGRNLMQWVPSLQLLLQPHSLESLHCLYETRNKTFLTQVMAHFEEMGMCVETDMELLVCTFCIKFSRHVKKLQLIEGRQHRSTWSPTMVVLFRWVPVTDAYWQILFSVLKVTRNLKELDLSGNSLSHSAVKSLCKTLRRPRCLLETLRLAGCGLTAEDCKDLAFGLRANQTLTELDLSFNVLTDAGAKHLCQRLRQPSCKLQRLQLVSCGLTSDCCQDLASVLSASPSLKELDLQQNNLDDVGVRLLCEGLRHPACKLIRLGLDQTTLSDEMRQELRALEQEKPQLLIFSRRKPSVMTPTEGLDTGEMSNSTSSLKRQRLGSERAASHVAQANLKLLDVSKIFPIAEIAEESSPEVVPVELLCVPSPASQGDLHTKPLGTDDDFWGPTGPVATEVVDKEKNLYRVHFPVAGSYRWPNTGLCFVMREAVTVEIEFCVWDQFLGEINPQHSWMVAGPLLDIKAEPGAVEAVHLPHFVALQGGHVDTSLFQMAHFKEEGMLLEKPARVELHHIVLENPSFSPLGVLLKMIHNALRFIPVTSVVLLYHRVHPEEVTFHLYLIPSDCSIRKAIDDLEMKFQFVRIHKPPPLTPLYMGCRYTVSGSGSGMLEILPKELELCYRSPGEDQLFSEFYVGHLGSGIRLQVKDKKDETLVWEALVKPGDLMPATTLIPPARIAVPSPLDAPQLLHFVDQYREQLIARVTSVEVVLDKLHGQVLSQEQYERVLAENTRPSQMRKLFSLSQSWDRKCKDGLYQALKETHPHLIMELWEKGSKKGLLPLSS
Test: co-IP; HEK 293T cells transiently co-transfected, 28 hours; lysate (20 mM Tris-HCl pH 7.5, 100 mM KCl, 5 mM MgCl2, 0.3% NP-40); precipitation by the Strep tag of CARD8-T60-Strep (anti-Strep; Strep-Tactin gel) overnight at 4 °C; immunoblotting
Conditions: partners not purified

binding result: binds
B1: CARD8-T60-Strep (natural protein, human, UniProt Q9Y2G2-5 1-537, looked up)
chain: MEKKECPEKSSSSEEELPRRDSGSSRNIDASKLIRLQGSRKLLVDNSIRELQYTKTGIFFQAEACVTNDTVYRELPCVSETLCDISHFFQEDDETEAEPLLFRAVPECQLSGGDIPSVSEEQESSEGQDSGDICSEENQIVSSYASKVCFEIEEDYKNRQFLGPEGNVDVELIDKSTNRYSVWFPTAGWYLWSATGLGFLVRDEVTVTIAFGSWSQHLALDLQHHEQWLVGGPLFDVTAEPEEAVAEIHLPHFISLQAGEVDVSWFLVAHFKNEGMVLEHPARVEPFYAVLESPSFSLMGILLRIASGTRLSIPITSNTLIYYHPHPEDIKFHLYLVPSDALLTKAIDDEEDRFHGVRLQTSPPMEPLNFGSSYIVSNSANLKVMPKELKLSYRSPGEIQHFSKFYAGQMKEPIQLEITEKRHGTLVWDTEVKPVDLQLVAASAPPPFSGAAFVKENHRQLQARMGDLKGVLDDLQDNEVLTENEKELVEQEKTRQSKNEALLSMVEKKGDLALDVLFRSISERDPYLVSYLRQQNL
notes: CARD8, T60 isoform, human, UniProt Q9Y2G2-5, full length; The host of the purified protein is told only as a mammalian expression system; also called CARD8-Strep; T60 isoform of CARD8; source: HEK 293T, transiently transfected, in lysate; also purified using mammalian protein expression system
